Data taken from article PMC8749432.

Assays:
[1] = target: HIV-1 BG505.W6M.B1 envelope glycoprotein I423A on SHIV-BG505 virions (HIV-1)
[2] = target: HIV-1 BG505.W6M.B1 envelope glycoprotein A204E on SHIV-BG505 virions (HIV-1)
[3] = target: HIV-1 BG505.W6M.B1 envelope glycoprotein L193A on SHIV-BG505 virions (HIV-1)

“Soluble rhesus CD4 (Met1-Trp390) with C-terminal 6×His tag (from UniProt P16003 26-390) (domain or fragment)” showed a neutralisation of SHIV-BG505 infection of TZM-bl cells by soluble rhCD4; sensitivity against WT SHIV (fold more sensitive than WT SHIV) [1] of 30, a neutralisation of SHIV-BG505 infection of TZM-bl cells by soluble rhCD4; sensitivity against WT SHIV (fold more sensitive than WT SHIV) [2] of 1500 and a neutralisation of SHIV-BG505 infection of TZM-bl cells by soluble rhCD4; sensitivity against WT SHIV (fold more sensitive than WT SHIV) [3] of 3.
